Assay results as given in patent US20020164716A1 (GENETICS INSTITUTE, published 2002).

T1: TNF-R1-DD ligand protein encoded by clone 1TU (Homo sapiens (Human), UniProt Q8TEL6 488-797)
T1 construct: partial clone
T1 sequence: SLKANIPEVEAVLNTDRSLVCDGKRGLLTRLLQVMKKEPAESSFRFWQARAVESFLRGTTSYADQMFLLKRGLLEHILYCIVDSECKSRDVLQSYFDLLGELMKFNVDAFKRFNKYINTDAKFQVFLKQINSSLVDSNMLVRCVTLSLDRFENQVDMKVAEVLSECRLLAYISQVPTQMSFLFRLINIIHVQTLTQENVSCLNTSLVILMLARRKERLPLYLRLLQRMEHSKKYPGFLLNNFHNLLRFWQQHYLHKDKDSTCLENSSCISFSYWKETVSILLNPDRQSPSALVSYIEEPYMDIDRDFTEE

T2: TNF-R1-DD ligand protein encoded by clone 3DD (Homo sapiens (Human), UniProt Q9H3U1 807-944)
T2 construct: partial clone
T2 sequence: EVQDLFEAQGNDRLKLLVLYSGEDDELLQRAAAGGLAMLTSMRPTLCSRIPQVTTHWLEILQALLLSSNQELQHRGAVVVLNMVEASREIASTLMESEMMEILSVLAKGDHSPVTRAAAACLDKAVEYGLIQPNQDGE

B1: intracellular domain of the second TNF-R (TNF-R p75IC) (receptor, UniProt P20333 288-461, looked up)
chain: KKKPLCLQREAKVPHLPADKARGTQGPEQQHLLITAPSSSSSSLESSASALDRRAPTRNQPQAPGVEASGAGEARASTGSSDSSPGGHGTQVNVTCIVNVCSSSDHSSQCSSQASSTMGDTDSSPSESPKDEQVPFSKEECAFRSQLETPETLLGSTEEKPLPLGVPDAGMKPS
notes: domain: intracellular domain; also called TNF-R p75JC
B2: TNF-R1-DD ligand protein encoded by clone 20DD (ligand, not shown: large carriers)
chain: EKPLHALLHGRGVCLNEKSYREQVKIERDSREHEEPTTSEMAEETYSPKIFRPKHTRISELKAEAVKKDRRKKLTQSKFVGGAENTAHPRIISEPEMRQESEQGPCRRHMEASLQELKASPRMVPRAVYLPNCDRKGFYKRKQCKPSRGRKRGICWCVDKYGMKLPGMEYVDGDFQCHTFDSSNVE
B3: death domain of the fas antigen (FasDD) (receptor, UniProt P25445 230-314, looked up)
chain: SKYITTIAGVMTLSQVKGFVRKNGVNEAKIDEIKNDNVQDTAEQKVQLLRNWHQLHGKKEAYDTLIKDLKKANLCTLAEKIQTII
notes: domain: death domain
B4: LexA-TNF-R1-DD fusion protein (death domain of the P55 type 1 TNF receptor) (receptor, UniProt P19438 355-442, looked up)
chain: DPATLYAVVENVPPLRWKEFVRRLGLSDHEIDRLELQNGRCLREAQYSMLATWRRRTPRREATLELLGRVLRDMDLLGCLEDIEEALC
notes: range 326-413; also called TNF-RDD; TNF-R death domain; not shown: LexA, bait fusion partner from plasmid pEG202
B5: TNF-R death domain mutant L351A (receptor, UniProt P19438 355-442, looked up)
chain: DPATLYAVVENVPPLRWKEFVRRLGASDHEIDRLELQNGRCLREAQYSMLATWRRRTPRREATLELLGRVLRDMDLLGCLEDIEEALC
notes: range 326-413; Numbering as printed, see the note of m7; not shown: LexA, bait fusion partner from plasmid pEG202
B6: TNF-R death domain mutant W378A (receptor, UniProt P19438 355-442, looked up)
chain: DPATLYAVVENVPPLRWKEFVRRLGLSDHEIDRLELQNGRCLREAQYSMLATARRRTPRREATLELLGRVLRDMDLLGCLEDIEEALC
notes: as for B5
B7: TNF-R death domain mutant F345A (receptor, UniProt P19438 355-442, looked up)
chain: DPATLYAVVENVPPLRWKEAVRRLGLSDHEIDRLELQNGRCLREAQYSMLATWRRRTPRREATLELLGRVLRDMDLLGCLEDIEEALC
notes: as for B5
B8: TNF-R1-DD expressed as a GST fusion protein (receptor)
chain: DPATLYAVVENVPPLRWKEFVRRLGLSDHEIDRLELQNGRCLREAQYSMLATWRRRTPRREATLELLGRVLRDMDLLGCLEDIEEALC
notes: range 326-413; Purified, bacterially expressed, held on glutathione beads; Numbering: see the note of m7; also called GST-TNF-R1-DD; GST/TNF-R1-DD; not shown: glutathione-S-transferase (GST) from a pGEX vector (Pharmacia)
B9: TNF-R death domain mutant I408A (receptor, UniProt P19438 355-442, looked up)
chain: DPATLYAVVENVPPLRWKEFVRRLGLSDHEIDRLELQNGRCLREAQYSMLATWRRRTPRREATLELLGRVLRDMDLLGCLEDAEEALC
notes: as for B5
B10: Drosophila transcription factor bicoid (other, UniProt P09081-2 2-160, looked up)
chain: AQPPPDQNFYHHPLPHTHTHPHPHSHPHPHSHPHPHHQHPQLQLPPQFRNPFDLLFDERTGAINYNYIRPYLPNQMPKPEELPDSLVMRRPRRTRTTFTSSQIAELEQHFLQGRYLTAPRLADLSAKLALGTAQVKIWFKNRRRRHKIQSDQHKDQSYE
B11: entire intracellular domain of TNF-R (TNF-R p55IC) (receptor, UniProt P19438 233-455, looked up)
chain: MYRYQRWKSKLYSIVCGKSTPEKEGELEGTTTKPLAPNPSFSPTPGFTPTLGFSPVPSSTFTSSSTYTPGDCPNFAAPRREVAPPYQGADPILATALASDPIPNPLQKWEDSAHKPQSLDTDDPATLYAVVENVPPLRWKEFVRRLGLSDHEIDRLELQNGRCLREAQYSMLATWRRRTPRREATLELLGRVLRDMDLLGCLEDIEEALCGPAALPPAPSLLR
notes: domain: entire intracellular domain; also called TNF-R p55JC; cytoplasmic domain of the p55 TNF-R

Legend:
[1] = molecular target: T3, TNF-R1-DD ligand protein encoded by clone 27TU (Homo sapiens (Human), UniProt Q8WXG6 1002-1647); assay: yeast interaction trap, panel of baits
T3 construct: partial clone
T3 sequence (Q8WXG6 other isoform, or with tags, fused parts or gaps): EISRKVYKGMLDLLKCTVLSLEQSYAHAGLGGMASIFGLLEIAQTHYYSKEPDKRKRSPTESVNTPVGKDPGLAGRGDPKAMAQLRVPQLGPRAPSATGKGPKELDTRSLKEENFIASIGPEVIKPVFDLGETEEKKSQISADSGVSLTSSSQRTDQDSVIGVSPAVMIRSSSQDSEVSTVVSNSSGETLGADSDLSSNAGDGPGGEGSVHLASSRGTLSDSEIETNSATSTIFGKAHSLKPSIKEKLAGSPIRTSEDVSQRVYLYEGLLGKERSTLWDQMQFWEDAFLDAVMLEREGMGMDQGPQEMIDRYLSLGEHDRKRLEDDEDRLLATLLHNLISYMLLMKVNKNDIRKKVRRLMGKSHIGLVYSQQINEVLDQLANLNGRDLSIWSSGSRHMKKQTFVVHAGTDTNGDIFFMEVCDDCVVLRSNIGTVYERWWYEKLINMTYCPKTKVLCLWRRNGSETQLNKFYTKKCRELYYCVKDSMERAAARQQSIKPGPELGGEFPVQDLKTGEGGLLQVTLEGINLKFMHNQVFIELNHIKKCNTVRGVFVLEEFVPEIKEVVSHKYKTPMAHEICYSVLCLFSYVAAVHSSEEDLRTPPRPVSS
Source text: (§1) The ability of these clones to bind the TNF-R death domain was compared to their binding to the intracellular domain of the second TNF-R (TNF-R p75IC), the entire intracellular domain of TNF-R (TNF-R p55IC), the death domain of the fas antigen (which shares 28% identity with TNF-R-DD) (FasDD), the Drosophila transcription factor bicoid, and a region of the IL-1 receptor known to be critical for signalling (IL-1R₄₇₇₋₅₂₇).

[2] = molecular target: T1, TNF-R1-DD ligand protein encoded by …; assay: yeast interaction trap, panel of baits
Source text: as §1

[3] = molecular target: B4; assay: yeast interaction trap, panel of baits
Source text: (§2) A yeast genetic selection method, the “interaction trap” [Gyuris et al, Cell 75:791-803, 1993, which is incorporated herein by reference], was used to screen WI38 cell cDNA libraries (preparation, see below) for proteins that interact with the death domain of the P55 type 1 TNF receptor (TNF-R1-DD). A polynucleotide encoding amino acids 326 to 413 of the P55 type TNF receptor, TNF-R1-DD, was obtained via the polymerase chain reaction (PCR) using a grafting method. This TNF-R1-DD DNA was then cloned into pEG202 by BamHI and SalI sites, generating the bait plasmid, pEG202-TNF-R1-DD. This plasmid contains the HIS3 selectable marker, and expression of the bait, the LexA-TNF-R1-DD fusion protein, is from the strong constitutive ADH1 promoter. To create the reporter strain carrying the bait protein, yeast strain EGY48, containing the reporter sequence LexAop-Leu2 in place of the chromosomal LEU2, was transformed with pEG202-TNF-R1-DD and pSH18-34 (Ura+), which carries another reporter sequence, LexAop-lacZ. For screening cDNAs encoding proteins that interact with TNF-R1-DD, the expression vector pJG4-5 (TRP1), containing the WI38 cell cDNA library (see below for the cDNA library construction), was transformed into the above strain (EGY48/pEG202-TNF-R1-DD/pSH18-34) according to the method described by Gietz et al., Nucleic Acids Res., 20:1425 (1992).
(§3) The clones “2DD,” “3DD” and “20DD” were chosen for further analysis. Library vector pJG4-5 containing these clones sequences were rescued from yeast by transforming the total yeast DNAs into the E. coli strain KC8 and selecting for growth on Trp-ampicillin plates.

[4] = molecular target: T4, protein encoded by clone 15TU (Homo sapiens (Human), UniProt Q8WXG6 1329-1647); assay: yeast interaction trap, panel of baits
T4 construct: The limits 289-607 are printed as approximate
T4 sequence (Q8WXG6 1329-1647): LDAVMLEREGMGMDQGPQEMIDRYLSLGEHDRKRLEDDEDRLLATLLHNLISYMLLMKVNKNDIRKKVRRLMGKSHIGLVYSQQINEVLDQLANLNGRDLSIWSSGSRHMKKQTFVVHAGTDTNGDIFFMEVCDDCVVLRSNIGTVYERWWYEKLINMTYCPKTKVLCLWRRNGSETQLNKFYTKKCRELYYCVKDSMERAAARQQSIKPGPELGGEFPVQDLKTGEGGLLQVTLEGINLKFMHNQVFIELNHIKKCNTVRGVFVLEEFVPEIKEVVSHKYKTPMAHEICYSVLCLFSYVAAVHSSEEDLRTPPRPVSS
Source text: as §1

[5] = molecular target: T5, TNF-R1-DD ligand protein encoded by clone 2DD (Homo sapiens (Human), UniProt Q8WXG6 1217-1647); assay: yeast interaction trap, panel of baits
T5 construct: partial clone of a longer protein
T5 sequence (Q8WXG6 other isoform, or with tags, fused parts or gaps): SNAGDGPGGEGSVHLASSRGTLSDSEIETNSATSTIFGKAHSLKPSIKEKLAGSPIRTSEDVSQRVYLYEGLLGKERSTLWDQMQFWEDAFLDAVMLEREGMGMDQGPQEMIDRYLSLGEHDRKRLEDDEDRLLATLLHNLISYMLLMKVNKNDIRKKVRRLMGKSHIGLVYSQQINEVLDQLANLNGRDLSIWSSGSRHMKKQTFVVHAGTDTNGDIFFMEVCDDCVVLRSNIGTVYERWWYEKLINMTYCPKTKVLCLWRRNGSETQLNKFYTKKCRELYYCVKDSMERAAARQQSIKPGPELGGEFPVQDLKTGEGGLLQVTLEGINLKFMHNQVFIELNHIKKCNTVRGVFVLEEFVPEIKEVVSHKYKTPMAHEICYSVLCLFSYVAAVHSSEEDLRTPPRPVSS
Source text: as §2, §3

[6] = molecular target: T2, TNF-R1-DD ligand protein encoded by …; assay: yeast interaction trap, panel of baits
Source text: as §2, §3

[7] = molecular target: T4, protein encoded by clone 15TU; assay: yeast interaction trap, wild type against death domain mutants
[8] = molecular target: T1, TNF-R1-DD ligand protein encoded by …; assay: as above
[9] = molecular target: T4, protein encoded by clone 15TU; assay: yeast interaction trap, death domain mutants
Experimental: (§4) The ability of each clone to interact with four single-site mutations in the TNF-R death domain (each known to abolish signalling) was measured.

[10] = molecular target: T3, TNF-R1-DD ligand protein encoded by …; assay: yeast interaction trap, death domain mutants
Experimental: as §4

[11] = molecular target: T1, TNF-R1-DD ligand protein encoded by …; assay: yeast interaction trap, death domain mutants
Experimental: as §4

[12] = molecular target: MBP protein (UniProt P0AEX9 27-392 = MBP); assay: pull-down on glutathione beads, Western blot with anti-MBP antibody
Experimental: The reaction ws performed at 4° C. for 2 hours and centrifuged to remove unbound fraction (Unbound). The beads were then washed with 500 μl binding buffer four times and resuspended into SDS-sample buffer (Bound).

Binder	binding result [1]	binding result [9]	binding result [10]	binding result [11]	further results
B1	no binding	–	–	–	binding result [2]: no binding
B2	–	–	–	–	binding result [3]: binds
B3	no binding	–	–	–	binding result [4]: no binding; binding result [2]: no binding
B4	binds	–	–	–	binding result [5]: binds; binding result [6]: binds; binding result [7]: binds; binding result [8]: binds
B5	–	binds	binds	binds	–
B6	–	binds	binds	binds	–
B7	–	binds	binds	binds	–
B8	–	–	–	–	binding result [12]: no binding (tested: 3 µg)
B9	–	binds	binds	binds	–
B10	no binding	–	–	–	binding result [4]: no binding
B11	binds	–	–	–	binding result [4]: binds; binding result [2]: binds
